Assay results from patent US20200164032A1 (WASHINGTON UNIVERSITY, published 2020).
Residue numbers refer to the chain shown, from its start.

Key:
murine CCL3 = biological target: T1, murine CCL3 (mouse, UniProt P10855 24-92)
T1 sequence: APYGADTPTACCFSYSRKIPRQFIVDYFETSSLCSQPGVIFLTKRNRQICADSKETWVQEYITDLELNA

murine CCL2 = biological target: T2, murine CCL2 (mouse, UniProt P10148 24-148); assay: SPR, mutant R17 on CM5 chip
T2 construct: also called mCCL2

[1] = biological target: CCL2 (species not given); assay: SPR, R17 variant on CM5 chip; column kd x 10^-3 s-1
[2] = biological target: CCL2 (species not given); assay: SPR, R17 variant on CM5 chip; column KDeq (nM)
[3] = biological target: CCL3 (species not given); assay: SPR, R17 variant on CM5 chip; column KDeq (nM); ka, kd, KD printed n/a
[4] = biological target: CCL2 (species not given); assay: SPR, R17 variant on CM5 chip; column ka x 10^6 M-1s-1
[5] = biological target: CCL2 (species not given); assay: SPR, R17 variant on CM5 chip; column KD (nM), kinetic
human CCL3 = biological target: T3, human CCL3 (human, UniProt P10147 23-92); assay: SPR, R17 264GG(G)DS267 on CM5 chip, hCCL3 injected
T3 construct: also called hCCL3
T3 sequence: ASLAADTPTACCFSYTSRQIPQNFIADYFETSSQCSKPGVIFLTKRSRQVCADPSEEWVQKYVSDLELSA

T2 sequence (P10148 24-148 limits assumed): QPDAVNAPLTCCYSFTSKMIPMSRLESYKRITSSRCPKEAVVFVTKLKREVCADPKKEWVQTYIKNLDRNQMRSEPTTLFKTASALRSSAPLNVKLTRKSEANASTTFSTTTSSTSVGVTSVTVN

B1: R17 266NAGAQ270 (R17 with 266DSGSE270 mutated to 266NAGAQ270), C-terminal His construct (receptor)
chain: GPVGEPVASEINEASKVSSRLLTQDILFRKDRQATISLPIKLPVEDIITQTCDKITYGPLKFLDLLEKETAVLPLSTDITCPACLGRAVLVGKWECPAHVAVNESDLTVFGPNKEEHVPQFVTVQQPSDGKMQRLFFAKFLGTEESLAVLRVPGPDGHLCIQEALIHFKELSGAGVCSLWKANDSREEGLEMKQVDCLETTVLENQTCIATTLSKKIYHRLYCGERLMTGGQVSTRVLLTALGFYKRQPYTFHRVPKGMVYVHLINAGAQDYMEYSECEEVTPGRYEDKQISYTFYTDLFQTADGEPVLASVWGTSGLKDSAYESCAFVIPTKGRRKLVPRRIMSKCYPFRLTYHPSTMTVRLDVRVEKHHGATDQGFVFLKMESGTYSEGREYYLDRVLWGEDSSTNNVLQ
Kd (murine CCL3): 2.9 nM | koff (murine CCL3): 0.061 s⁻¹ | kon (murine CCL3): 3.1e+07 M⁻¹ s⁻¹ | t1/2 (murine CCL3): 11.2 s | binding result (murine CCL2): no binding

B2: R17GAG1 (R17 with residues 29 to 32 RKDR mutated to EDDE), C-terminal His construct (receptor)
chain: B1 chain with R29E, K30D, R32E, N266D, A267S, A269S, Q270E
notes: not shown: C-terminal 8-His tag
koff [1]: 0.0137 s⁻¹ | Kd [2]: 31 nM | Kd [3]: 0.8 nM | kon [4]: 1.2e+06 M⁻¹ s⁻¹ | Kd [5]: 10 nM

B3: R17GAG2 (R17 with residues 333 to 337 KGRRK mutated to DGEED), C-terminal His construct (receptor)
chain: B1 chain with N266D, A267S, A269S, Q270E, K333D, R335E, R336E, K337D
notes: as for B2
koff [1]: 0.012 s⁻¹ | Kd [2]: 40 nM | Kd [3]: 0.31 nM | kon [4]: 1.2e+06 M⁻¹ s⁻¹ | Kd [5]: 9.5 nM

B4: R17 264GG(G)DS267 chemokine null mutant (264LIDS267 replaced by 264GG(G)DS267, with a glycine insert (receptor)
chain: GPVGEPVASEINEASKVSSRLLTQDILFRKDRQATISLPIKLPVEDIITQTCDKITYGPLKFLDLLEKETAVLPLSTDITCPACLGRAVLVGKWECPAHVAVNESDLTVFGPNKEEHVPQFVTVQQPSDGKMQRLFFAKFLGTEESLAVLRVPGPDGHLCIQEALIHFKELSGAGVCSLWKANDSREEGLEMKQVDCLETTVLENQTCIATTLSKKIYHRLYCGERLMTGGQVSTRVLLTALGFYKRQPYTFHRVPKGMVYVHGGGDSGSEDYMEYSECEEVTPGRYEDKQISYTFYTDLFQTADGEPVLASVWGTSGLKDSAYESCAFVIPTKGRRKLVPRRIMSKCYPFRLTYHPSTMTVRLDVRVEKHHGATDQGFVFLKMESGTYSEGREYYLDRVLWGEDSSTNNVLQ
binding result (human CCL3): no binding (tested: 100 nM)
